Substitutions are numbered along the chain they refer to.
B1: H2M2690N (antibody, V domains shown)
VH: EVQLVESGGGLVQPGRSLRLSCAASGFTFDDYTMHWVRQAPGKGLEWVSGISWNSGSIGYADSVKGRFTISRDNAKKSLYLQMNSLRAEDTALYYCAKDNSGYGHYYYGMDVWGQGTTVTVAS
VL: EIVMTQSPATLSVSPGERATLSCRASQSVSSNLAWYQQKPGQAPRLLIYGASTRATGIPARFSGSGSGTEFTLTISSLQSEDFAVYYCQHYINWPLTFGGGTKVEIK
notes: Hybridoma antibody, human variable regions, mouse IgG2 Fc
B2: H2M2779N (antibody, V domains shown)
VH: B1 VH with R16G, S25T, Y32F, A61V, K77N, H105Y, A122S
VL: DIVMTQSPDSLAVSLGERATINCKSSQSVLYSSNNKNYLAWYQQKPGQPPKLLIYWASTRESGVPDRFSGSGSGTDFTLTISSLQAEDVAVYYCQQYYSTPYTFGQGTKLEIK
notes: H2M: mouse IgG2 Fc, human variable regions; divalent
B3: H2M2707N (antibody, V domains shown)
VH: QVQLVESGGGVVQPGRSLRLSCIASGFTFRSYGMHWVRQAPGKGLEWVAMIYYDGNNKYYADSVRGRFTISRDNSKNTLYLQMNSLRADDTAVYFCARGPGYNWLDPWGQGTLVTVSS
VL: B1 VL with H90Q, I92N, W94R
notes: as for B1
B4: H1M2692N (antibody, V domains shown)
VH: EVQLVESGGGLVQPGGSLRLSCAASGFSFDDYTMHWVRQPPGKGLEWVSGISWNSGSIGYADSVKGRFTISRDNAKNSLYLQMNSLRAGDTALYYCAKDNSGYGYYYYYGMDVWGQGTTVTVSS
VL: B1 VL with H90Q, I92Y
notes: Hybridoma antibody, human variable regions, mouse IgG1 Fc
B5: H2M2691N (antibody, V domains shown)
VH: B1 VH
VL: B1 VL
notes: as for B1
B6: H2M2708N (antibody, V domains shown)
VH: B3 VH with I23A, Y32F, K43R, Y53F, N56K, Q82E, N84S, D89E
VL: B1 VL with A19V, V29I, S31R, I58V, Y86F, Y87H, H90Q, I92N, W94R, K103E
notes: as for B1
B7: H2M2706N (antibody, V domains shown)
VH: B3 VH with I23A, G33A, I51V, K58Q
VL: B1 VL with S31R, E70D, H90Q, I92N, E105V
notes: as for B1
B8: H2M2774N (antibody, V domains shown)
VH: B3 VH with I23V, E46Q, N56K, D89E, V93M
VL: B1 VL with S28R, V29I, I58S, F83V, H90Q, Y91H, I92N
notes: as for B1
B9: H2M2689N (antibody, V domains shown)
VH: QVQLVESGGGVVQPGRSLRLSCAASGFTFSRKGMHWVRQAPVKGLEWVAVISYDGSNKYYADSVKGRFTISRDNSKNTLYLQMNSLTAEDTAVYYCAKEGGHDYGGTFDYWGQGTLVTVSS
VL: not shown
notes: as for B1
B10: H2M2689N (antibody, mouse IgG2, V domains shown)
VH: B9 VH
VL: not shown
notes: as for B2
B11: H1M3544N (antibody, mouse IgG1, V domains shown)
VH: EVQLVESGGGLVQPGRSLRLSCAASGFTFDDYTMHWVRQVPGKGLEWVSGISWNSGSLAYADSVKGRFTISRDNAKNSLYLQMNSLHPEDTALYYCVKDGSGYGHYSYYGLDVWGQGTTVTVSS
VL: not shown
notes: H1M: mouse IgG1 Fc, human variable regions; divalent

What was measured:
[1] = target: T1, Soluble heterodimeric CD3 protein (hCD3-epsilon/hCD3-delta) with a human Fc tag (hFcΔAdp/hFc) or a mouse Fc … (human, UniProt P07766 23-126; P04234 22-105); test: SPR Biacore, 25 C, antibody-capture format
T1 construct: also called hCD3ε/δ; not shown: Fc tag: human (hFcΔAdp/hFc); which tag was used in Ta
T1 sequence (P07766 23-126 limits assumed, stated change not applied, chain 1 of 2): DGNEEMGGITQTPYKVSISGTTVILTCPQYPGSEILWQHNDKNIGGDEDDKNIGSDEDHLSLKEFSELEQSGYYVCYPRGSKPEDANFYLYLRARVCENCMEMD
T1 sequence (P04234 22-105 limits assumed, stated change not applied, chain 2 of 2): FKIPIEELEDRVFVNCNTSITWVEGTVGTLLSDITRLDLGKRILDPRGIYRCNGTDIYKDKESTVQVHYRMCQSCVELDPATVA
Description: (§1) Measurements were conducted on a T200 Biacore™ instrument.
Soluble heterodimeric CD3 protein (hCD3-epsilon/hCD3-delta; SEQ ID NOs:1652/1653) with either a human Fc tag (hFcΔAdp/hFc; SEQ ID NOs:1683/1684) or a mouse Fc tag (mFcΔAdp/mFc; SEQ ID NOs:1685/1686) was injected over the antibody captured surface and the binding response was recorded. Heterodimeric CD3 protein was purified using the method described in Davis et al. (US2010/0331527).
(§2) Kinetic association (kₐ) and dissociation (kd) rate constants were determined by processing and fitting the data to a 1:1 binding model using Scrubber 2.0 curve fitting software. Binding dissociation equilibrium constants (KD) and dissociative half-lives (t₁₁₂) were calculated from the kinetic rate constants as: KD (M)=kd/kₐ; and t_{1/2} (min)=(ln 2/(60*kd). NT=not tested; NB=no binding observed.

[2] = target: T2, Soluble heterodimeric CD3 protein (hCD3-epsilon/hCD3-delta) with either a human Fc tag (hFcΔAdp/hFc) or a … (human, UniProt P07766 23-126; P04234 22-105); test: SPR Biacore 25C antigen-capture
T2 construct: also called hCD3ε/δ; not shown: Fc tag: human (hFcΔAdp/hFc)
T2 sequence (P07766 23-126 limits assumed, stated change not applied, chain 1 of 2): as the sequence (P07766 23-126 limits assumed, stated change not applied, chain 1 of 2) above
T2 sequence (P04234 22-105 limits assumed, stated change not applied, chain 2 of 2): as the sequence (P04234 22-105 limits assumed, stated change not applied, chain 2 of 2) above
Description: as §1
In the antigen-capture format, heterodimeric CD3 protein was captured using a rabbit anti-mouse Fc or mouse anti-human Fc and the respective antibodies were injected over the captured antigen.
as §2

Binder	Kd [1]	T½ [1]	koff [1]	kon [1]	Kd [2]	T½ [2]	koff [2]	kon [2]
B1	20.9 nM	57 min	0.000202 s⁻¹	9700 M⁻¹ s⁻¹	–	–	–	–
B2	–	–	–	–	0.0938 nM	941 min	1.23e-05 s⁻¹	128000 M⁻¹ s⁻¹
B3	63.5 nM	6 min	0.00187 s⁻¹	29500 M⁻¹ s⁻¹	–	–	–	–
B4	53.9 nM	27 min	0.000434 s⁻¹	8050 M⁻¹ s⁻¹	–	–	–	–
B5	20.1 nM	56 min	0.000207 s⁻¹	10300 M⁻¹ s⁻¹	–	–	–	–
B6	8.82 nM	19 min	0.000612 s⁻¹	69400 M⁻¹ s⁻¹	–	–	–	–
B7	135 nM	3 min	0.00444 s⁻¹	32900 M⁻¹ s⁻¹	–	–	–	–
B8	11.8 nM	13 min	0.000918 s⁻¹	77900 M⁻¹ s⁻¹	–	–	–	–
B9	4.18 nM	4 min	0.00323 s⁻¹	773000 M⁻¹ s⁻¹	–	–	–	–
B10	–	–	–	–	0.0583 nM	116 min	9.97e-05 s⁻¹	1.71e+06 M⁻¹ s⁻¹
B11	–	–	–	–	–	193 min	–	–
